T1: CD133 on CD44- and CD133-positive glioma stem cells GSC20 (UniProt O43490 20-865, limits assumed)
T1 sequence (looked up): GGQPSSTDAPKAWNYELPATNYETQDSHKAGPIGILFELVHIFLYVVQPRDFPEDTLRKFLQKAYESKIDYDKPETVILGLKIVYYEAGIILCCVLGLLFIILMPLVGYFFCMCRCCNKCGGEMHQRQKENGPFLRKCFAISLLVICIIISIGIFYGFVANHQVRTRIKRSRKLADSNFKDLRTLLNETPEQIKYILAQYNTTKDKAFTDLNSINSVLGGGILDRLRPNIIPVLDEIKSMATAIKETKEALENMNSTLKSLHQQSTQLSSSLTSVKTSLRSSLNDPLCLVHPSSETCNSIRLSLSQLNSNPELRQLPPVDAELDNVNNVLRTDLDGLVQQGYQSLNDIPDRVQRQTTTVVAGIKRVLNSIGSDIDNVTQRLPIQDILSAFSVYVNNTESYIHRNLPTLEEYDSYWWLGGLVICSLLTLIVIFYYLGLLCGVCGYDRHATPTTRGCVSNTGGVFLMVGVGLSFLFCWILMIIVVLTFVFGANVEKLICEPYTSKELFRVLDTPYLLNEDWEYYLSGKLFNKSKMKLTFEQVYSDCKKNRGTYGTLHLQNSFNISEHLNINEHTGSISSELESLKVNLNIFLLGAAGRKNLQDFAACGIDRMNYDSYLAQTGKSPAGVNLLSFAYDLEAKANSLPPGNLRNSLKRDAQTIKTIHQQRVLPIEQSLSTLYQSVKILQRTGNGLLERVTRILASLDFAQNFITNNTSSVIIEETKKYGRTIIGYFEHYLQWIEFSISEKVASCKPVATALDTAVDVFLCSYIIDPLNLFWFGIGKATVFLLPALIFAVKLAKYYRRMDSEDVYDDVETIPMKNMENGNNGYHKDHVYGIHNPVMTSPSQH

B1: fusion protein shown in SEQ ID NO. 5 (anti-CD133 single-chain antibody, CD28, CD3, T2A, anti-TIM3 single-chain antibody), expressed in CAR-T 3 cells (other)
chain: QVQLVQSGAEVKKPGASVKVSCKASGYTFTDFEMHWVRQAPGQGLEWMGDIDPGTGDTAYNLKFKGRVTMTTDTSTSTAYMELRSLRSDDTAVYYCALGAFVYWGQGTLVTVSSGSTSGGGSGGGSGGGGSSDVVMTQSPLSLPVTPGEPASISCRSSQSLANSYGNTYLSWYLQKPGQSPQLLIYGISNRFSGVPDRFSGSGSGTDFTLKISRVEAEDVGVYYCLQGTHQPYTFGQGTKLEIKTTTPAPRPPTPAPTIASQPLSLRPEACRPAAGGAVHTRGLDFACDIYIWAPLAGTCGVLLLSLVITLYCRSKRSRLLHSDYMNMTPRRPGPTRKHYQPYAPPRDFAAYRSRVKFSRSADAPAYKQGQNQLYNELNLGRREEYDVLDKRRGRDPEMGGKPRRKNPQEGLYNELQKDKMAEAYSEIGMKGERRRGKGHDGLYQGLSTATKDTYDALHMQALPPREGRGSLLTCGDVEENPGPMTNKCLLQIALLLCFSTTALSQVQLQQSGPGLVKPSHTLSLTCTVSGGSISSGGYYWSWTRQHPGMGLEWIGYISYSGSIYYTPSLKSRLTISVDTSKNQFSLKLSSVTAADTAVYYCASLDSWGSNRDYWGQGTLVTVSSGGGGSEIVLTQSPATLSLSPGERATLSCRASQSVSSYLAWYQQKPGQAPRLLIYDASNRATGIPARFSGSGSGTDFTLTISSLEPEDFAVYYCQQRSNWPLTFGGGTKVEIK
B2: fusion protein shown in SEQ ID NO. 3 (anti-CD133 single-chain antibody, CD28, CD3), expressed on CAR-T 1 cells (other)
chain: QVQLVQSGAEVKKPGASVKVSCKASGYTFTDFEMHWVRQAPGQGLEWMGDIDPGTGDTAYNLKFKGRVTMTTDTSTSTAYMELRSLRSDDTAVYYCALGAFVYWGQGTLVTVSSGSTSGGGSGGGSGGGGSSDVVMTQSPLSLPVTPGEPASISCRSSQSLANSYGNTYLSWYLQKPGQSPQLLIYGISNRFSGVPDRFSGSGSGTDFTLKISRVEAEDVGVYYCLQGTHQPYTFGQGTKLEIKTTTPAPRPPTPAPTIASQPLSLRPEACRPAAGGAVHTRGLDFACDIYIWAPLAGTCGVLLLSLVITLYCRSKRSRLLHSDYMNMTPRRPGPTRKHYQPYAPPRDFAAYRSRVKFSRSADAPAYKQGQNQLYNELNLGRREEYDVLDKRRGRDPEMGGKPRRKNPQEGLYNELQKDKMAEAYSEIGMKGERRRGKGHDGLYQGLSTATKDTYDALHMQALPPR
B3: fusion protein shown in SEQ ID NO. 4 (anti-CD133 single-chain antibody, CD28, truncated body of IL7Rα, CD3), expressed on CAR-T 2 cells (other)
chain: QVQLVQSGAEVKKPGASVKVSCKASGYTFTDFEMHWVRQAPGQGLEWMGDIDPGTGDTAYNLKFKGRVTMTTDTSTSTAYMELRSLRSDDTAVYYCALGAFVYWGQGTLVTVSSGSTSGGGSGGGSGGGGSSDVVMTQSPLSLPVTPGEPASISCRSSQSLANSYGNTYLSWYLQKPGQSPQLLIYGISNRFSGVPDRFSGSGSGTDFTLKISRVEAEDVGVYYCLQGTHQPYTFGQGTKLEIKTTTPAPRPPTPAPTIASQPLSLRPEACRPAAGGAVHTRGLDFACDIYIWAPLAGTCGVLLLSLVITLYCRSKRSRLLHSDYMNMTPRRPGPTRKHYQPYAPPRDFAAYRSKKRIKPIVWPSLPDHKKTLEHLCKKPRKNLNVSFNPESFLDCQIHRVDDIQARDEVEGFLQDTFPQQLEESEKQRLLGSNQEEAYVTMSSFYQNQRVKFSRSADAPAYKQGQNQLYNELNLGRREEYDVLDKRRGRDPEMGGKPRRKNPQEGLYNELQKDKMAEAYSEIGMKGERRRGKGHDGLYQGLSTATKDTYDALHMQALPPR
B4: fusion protein shown in SEQ ID NO. 6 (anti-CD133 single-chain antibody, CD28, truncated body of IL7Rα, CD3, T2A, anti-TIM3 single-chain antibody), expressed in … (other)
chain: QVQLVQSGAEVKKPGASVKVSCKASGYTFTDFEMHWVRQAPGQGLEWMGDIDPGTGDTAYNLKFKGRVTMTTDTSTSTAYMELRSLRSDDTAVYYCALGAFVYWGQGTLVTVSSGSTSGGGSGGGSGGGGSSDVVMTQSPLSLPVTPGEPASISCRSSQSLANSYGNTYLSWYLQKPGQSPQLLIYGISNRFSGVPDRFSGSGSGTDFTLKISRVEAEDVGVYYCLQGTHQPYTFGQGTKLEIKTTTPAPRPPTPAPTIASQPLSLRPEACRPAAGGAVHTRGLDFACDIYIWAPLAGTCGVLLLSLVITLYCRSKRSRLLHSDYMNMTPRRPGPTRKHYQPYAPPRDFAAYRSKKRIKPIVWPSLPDHKKTLEHLCKKPRKNLNVSFNPESFLDCQIHRVDDIQARDEVEGFLQDTFPQQLEESEKQRLLGSNQEEAYVTMSSFYQNQRVKFSRSADAPAYKQGQNQLYNELNLGRREEYDVLDKRRGRDPEMGGKPRRKNPQEGLYNELQKDKMAEAYSEIGMKGERRRGKGHDGLYQGLSTATKDTYDALHMQALPPREGRGSLLTCGDVEENPGPMTNKCLLQIALLLCFSTTALSQVQLQQSGPGLVKPSHTLSLTCTVSGGSISSGGYYWSWTRQHPGMGLEWIGYISYSGSIYYTPSLKSRLTISVDTSKNQFSLKLSSVTAADTAVYYCASLDSWGSNRDYWGQGTLVTVSSGGGGSEIVLTQSPATLSLSPGERATLSCRASQSVSSYLAWYQQKPGQAPRLLIYDASNRATGIPARFSGSGSGTDFTLTISSLEPEDFAVYYCQQRSNWPLTFGGGTKVEIK

biological target: T1, CD133 on CD44- and CD133-positive …; assay: cell-based or functional assay

Q: For B1, which “Lysis rate of glioma stem cells GSC20 by CAR-T cells (LDH release, 4 h), effect-target ratio 1:1” value is on record?
A: 16.9%

Q: And the “Lysis rate of glioma stem cells GSC20 by CAR-T cells (LDH release, 4 h), effect-target ratio 2:1” value?
A: 20.3%

Q: And the “Lysis rate of glioma stem cells GSC20 by CAR-T cells (LDH release, 4 h), effect-target ratio 3:1” value?
A: 35.3%

Q: What about the “Lysis rate of glioma stem cells GSC20 by CAR-T cells (LDH release, 4 h), effect-target ratio 5:1” value of the same binder?
A: 49.5%

Q: What does the source list for B2?
A: Lysis rate of glioma stem cells GSC20 by CAR-T cells (LDH release, 4 h), effect-target ratio 1:1: 6.53%; Lysis rate of glioma stem cells GSC20 by CAR-T cells (LDH release, 4 h), effect-target ratio 2:1: 26%; Lysis rate of glioma stem cells GSC20 by CAR-T cells (LDH release, 4 h), effect-target ratio 3:1: 33.5%; Lysis rate of glioma stem cells GSC20 by CAR-T cells (LDH release, 4 h), effect-target ratio 5:1: 41.4%

Q: Which results are given for B3?
A: Lysis rate of glioma stem cells GSC20 by CAR-T cells (LDH release, 4 h), effect-target ratio 1:1: 16.3%; Lysis rate of glioma stem cells GSC20 by CAR-T cells (LDH release, 4 h), effect-target ratio 2:1: 28%; Lysis rate of glioma stem cells GSC20 by CAR-T cells (LDH release, 4 h), effect-target ratio 3:1: 39.6%; Lysis rate of glioma stem cells GSC20 by CAR-T cells (LDH release, 4 h), effect-target ratio 5:1: 43.4%

Q: Which “Lysis rate of glioma stem cells GSC20 by CAR-T cells (LDH release, 4 h), effect-target ratio 1:1” value does the source give for B4 here?
A: 31.4%

Q: What about the “Lysis rate of glioma stem cells GSC20 by CAR-T cells (LDH release, 4 h), effect-target ratio 2:1” value of the same binder?
A: 36.8%

Q: What about the “Lysis rate of glioma stem cells GSC20 by CAR-T cells (LDH release, 4 h), effect-target ratio 3:1” value of the same binder?
A: 69.6%

Q: What about the “Lysis rate of glioma stem cells GSC20 by CAR-T cells (LDH release, 4 h), effect-target ratio 5:1” value of the same binder?
A: 87.2%

Source: patent US20230310603A1 (BEIJING NEUROSURGICAL INSTITUTE, published 2023)
